Data reported in article PMC8073719, “Biochemical and Biophysical Characterization of Recombinant Human 3-Phosphoglycerate Dehydrogenase” (International Journal of Molecular Sciences, 2021).
Values joined by “and” are separate entries in the source; they are usually repeats but may differ in a detail not shown here. Equal values may be shown once.

Columns and labels:
[1] = Maximal solubility of inhibitor stock; type: physicochemical; details: dissolved in DMSO
hPHGDH [2] = biological target: T1, hPHGDH (Homo sapiens, UniProt O43175); test: Inhibition of hPHGDH activity by inhibitors (hydrazine assay); type: biochemical; design: His-tagged full-length hPHGDH was expressed in BL21(DE3) E. coli cells; made in house; host or cells: E. coli BL21(DE3); details: kinetics on 3PG at increasing inhibitor concentration
T1 sequence (O43175 1-533): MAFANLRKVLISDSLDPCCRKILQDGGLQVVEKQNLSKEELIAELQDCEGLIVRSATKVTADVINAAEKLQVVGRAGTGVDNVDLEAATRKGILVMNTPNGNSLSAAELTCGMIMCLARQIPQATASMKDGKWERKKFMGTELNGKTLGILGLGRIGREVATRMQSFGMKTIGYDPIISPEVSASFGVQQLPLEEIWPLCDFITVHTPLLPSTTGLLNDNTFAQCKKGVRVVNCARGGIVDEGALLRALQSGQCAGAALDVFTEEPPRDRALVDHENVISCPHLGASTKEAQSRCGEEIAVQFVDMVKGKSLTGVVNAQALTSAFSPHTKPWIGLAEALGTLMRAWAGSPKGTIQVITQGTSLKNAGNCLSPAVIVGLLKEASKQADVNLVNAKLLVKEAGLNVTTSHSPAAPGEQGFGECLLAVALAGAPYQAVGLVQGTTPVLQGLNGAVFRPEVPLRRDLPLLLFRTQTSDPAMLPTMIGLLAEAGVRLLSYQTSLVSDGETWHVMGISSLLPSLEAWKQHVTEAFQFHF

hPHGDH [3] = biological target: T1, hPHGDH; test: hPHGDH reverse reaction kinetics (decrease in NADH fluorescence at 450 nm); details: for kcat: per monomer
Text: The latter assay was used to determine the apparent kinetic parameters on alternative substrates.

truncated hPHGDH form = biological target: truncated hPHGDH form; design: method as in PMID 29262655; details: isothermal calorimetry; cited from earlier work
hPHGDH [4] = biological target: T1, hPHGDH; test: Ligand binding by quenching of protein fluorescence at 330 nm
Procedure: Protein fluorescence spectra were measured at 0.06–0.1 mg/mL protein concentration in 10 mM potassium phosphate, pH 7.0, 15 °C; spectra were recorded using a Jasco FP-750 instrument and were corrected for the buffer contribution. Protein fluorescence spectra were recorded between 300 and 450 nm, with excitation at 280 and 298 nm.
All recorded spectra were subtracted for the contribution of the ligand (added to the buffer only) and were corrected for dilution at every addition. […] In all cases, Kd values were determined by fitting the data to a hyperbolic function.

hPHGDH [5] = biological target: T1, hPHGDH; test: Temperature-ramp unfolding (melting temperature) with cofactors; type: binding; design: His-tagged full-length hPHGDH was expressed in BL21(DE3) E. coli cells; made in house; host or cells: E. coli BL21(DE3)
Procedure: Temperature-ramp experiments were performed in 10 mM potassium phosphate, pH 7.0. For this, a software-driven, Peltier-equipped fluorimeter was used to measure the protein fluorescence change at 330 nm or a CD spectropolarimeter to follow the CD signal at 280 nm in order to reproduce a temperature gradient (0.5 °C/min) [31].

M. tuberculosis PHGDH = details: reverse reaction; cited from earlier work
hPHGDH [6] = biological target: T1, hPHGDH; test: Effect of salts, phosphate and serine synthesis metabolites on hPHGDH activity (hydrazine assay); type: biochemical; design: His-tagged full-length hPHGDH was expressed in BL21(DE3) E. coli cells; made in house; host or cells: E. coli BL21(DE3); details: up to 50 mM final concentration
Text: The effects of KCl, NaCl, MgCl2 and CaCl2 and of pH and temperature on enzyme activity and stability were investigated using the hydrazine assay. […] The dependence of activity on pH was fitted using an equation for three pKa values, according to [44], providing apparent values unrelated to microscopic ones.

E. coli PHGDH = details: reverse reaction; cited from earlier work
[7] = biological target: the molecule itself; test: SEC; Superdex 200 Increase column, potassium phosphate pH 7.0 (20 mM with 0.15 M NaCl); major peak approx. 240 kDa; monomers to tetramer
[8] = biological target: the molecule itself; test: SEC; Superdex 200 Increase column, increasing potassium phosphate pH 7.0 (100, 250, 500 mM; 0.15 M NaCl added at 100 mM); minor peak ~480 kDa confirmed by anti-His Western blot; tetramers to octamer
[9] = substrate: O=C(O)C(O)COP(=O)(O)O; test: purified protein, by the assay type; details: pH 7.0
[10] = substrate: NC(=O)C1=CN([C@@H]2O[C@H](COP(=O)(O)OP(=O)(O)OC[C@H]3O[C@@H](n4cnc5c(N)ncnc54)[C@H](O)[C@@H]3O)[C@@H](O)[C@H]2O)C=CC1; test: purified protein, by the assay type; details: other: reverse reaction, NADH varied, 0.5 mM PHP, 37 °C, pH 7.0
[11] = substrate: CC(O)CC(=O)O; test: purified protein, by the assay type; details: hydrazine assay, pH 7.0
[12] = substrate: O=C(O)C(=O)COP(=O)(O)O; test: purified protein, by the assay type; details: pH 7.0
[13] = substrate: C[C@@H](O)C(=O)O; test: purified protein, by the assay type; details: other: forward reaction, substrate varied, 1.5 mM NAD^+, hydrazine assay, 37 °C, pH 7.0, per monomer
[14] = substrate: O=C(O)CC(=O)C(=O)O; test: purified protein, by the assay type; details: other: reverse reaction, substrate varied, 5 mM NADH, 37 °C, pH 7.0
[15] = substrate: O=C(O)C(O)C(O)C(=O)O; test: purified protein, by the assay type; details: other: forward reaction, substrate varied, 1.5 mM NAD^+, hydrazine assay, 37 °C, pH 7.0
[16] = substrate: NC(=O)c1ccc[n+]([C@@H]2O[C@H](COP(=O)(O)OP(=O)(O)OC[C@H]3O[C@@H](n4cnc5c(N)ncnc54)[C@H](O)[C@@H]3O)[C@@H](O)[C@H]2O)c1; test: purified protein, by the assay type; type: biochemical, human; details: 2.5 mM 3PG, pH 7.0; for Km: other: NAD+ varied, Figure S3C
Procedure: (§1) PSAT was added to drive the reaction and to avoid product inhibition of hPHGDH.

[17] = substrate: O=C(O)CC(O)C(=O)O; test: purified protein, by the assay type; type: biochemical, human; details: hydrazine assay, pH 7.0
Procedure: as §1

[18] = reverse reaction, NADH varied, 0.5 mM PHP, 37 °C, pH 7.0
[19] = other: forward reaction, substrate varied, 120 µM NAD^+, PSAT-coupled (1) and hydrazine (2) assays, 37 °C
[20] = other: forward reaction, substrate varied, 1.5 mM NAD^+, hydrazine assay, 37 °C
[21] = other: forward reaction, substrate varied, 1.5 mM NAD^+, 37 °C
[22] = other: reverse reaction (discussion value)
[23] = other: reverse reaction, substrate varied, 150 µM NADH, 37 °C
[24] = other: reverse reaction, substrate varied, 5 mM NADH, 37 °C
[25] = other: forward reaction, substrate varied, […] NAD^+, 37 °C

With CBR-5884 the maximal solubility [1] was at most 1000 µM and the mechanism of inhibition (hPHGDH [2]) was “noncompetitive inhibition mechanism”.

In the case of `NC(=O)C1=CN([C@@H]2O[C@H](COP(=O)(O)OP(=O)(O)OC[C@H]3O[C@@H](n4cnc5c(N)ncnc54)[C@H](O)[C@@H]3O)[C@@H](O)[C@H]2O)C=CC1` [NADH], the Km (hPHGDH [3]; [18]) is reported as 560 µM, the kcat (hPHGDH [3]; [18]) is reported as 3.4 s⁻¹ and the “maximal rate of Michaelis–Menten fit” value (hPHGDH [3]; reverse reaction, NADH varied, 0.5 mM PHP, Figure S4B) is reported as 3.3684. The Kd (truncated hPHGDH form) was 0.2 µM, the Kd (hPHGDH [4]; Kd (NAD^+; main phase of NADH binding), discussion value) was about 130 µM and the Kd (hPHGDH [4]; Kd, first phase, free enzyme, 15 °C) was 0.49 ± 0.03 µM. For the same molecule, the Kd (hPHGDH [4]; Kd, second phase, free enzyme, 15 °C) was 168 µM and 169 µM, the “amplitude of protein fluorescence quenching, first phase” value (hPHGDH [4]; free enzyme) was about 35% and the “amplitude of protein fluorescence quenching, second phase” value (hPHGDH [4]; free enzyme) was 65%. The “Tm, circular dichroism signal at 280 nm” value (hPHGDH [5]; 120 µM NAD^+ or 100 µM NADH, protein alone 47.5) was 51.0 °C, the “Tm, CD (220 nm)” value (hPHGDH [5]; +120 μM NAD^+ or +100 μM NADH, hPHGDH alone 47.2 ± 0.5) was 51.0 ± 0.3 °C and the “Tm, Fluorescence (330 nm)” value (hPHGDH [5]; +120 μM NAD^+ or +100 μM NADH, hPHGDH alone 48.4 ± 2.1) was 55.7 °C and 55.7 ± 0.1 °C.

For `O=C(O)C(=O)COP(=O)(O)O` [PHP, 3-phosphohydroxypyruvate], the Km (M. tuberculosis PHGDH) is listed as 85 µM, the Ki (hPHGDH [3]; Ki (substrate inhibition), reverse reaction, 150 µM NADH, 37 °C, pH 7.0) is listed as 2230 µM and the Ki (hPHGDH [3]; Ki (substrate inhibition), reverse reaction, 5 mM NADH, 37 °C, pH 7.0) is listed as 1260 µM. For the same molecule, the Ki (hPHGDH [3]; Ki of fit with substrate inhibition, reverse reaction, 150 µM NADH, Figure S4A) was 2230 µM, the Ki (hPHGDH [3]; Ki of fit with substrate inhibition, reverse reaction, 5 mM NADH, Figure S4A,C,D) was 1260 µM and the “kinetic efficiency kcat/Km ratio, reverse reaction vs forward reaction on 3PG” value (hPHGDH [3]; higher than for the forward reaction on 3PG) was 20 fold. For the same molecule, the “maximal rate of fit with substrate inhibition” value (hPHGDH [3]; reverse reaction, 150 µM NADH, Figure S4A) was 1.2871, the “maximal rate of fit with substrate inhibition” value (hPHGDH [3]; reverse reaction, 5 mM NADH, Figure S4A,C,D) was 2.282 and the kcat (hPHGDH [3]; reverse reaction, substrate varied, 150 µM NADH, 37 °C, pH 7.0) was 1.3 s⁻¹. For the same molecule, the “effect on hPHGDH activity on […] 3PG” value (hPHGDH [6]) was “not affected” and the Km (E. coli PHGDH) was 40 µM.

B1: recombinant human D-3-phosphoglycerate dehydrogenase, His-tagged, full length (enzyme, UniProt O43175 1-533, looked up)
chain: MAFANLRKVLISDSLDPCCRKILQDGGLQVVEKQNLSKEELIAELQDCEGLIVRSATKVTADVINAAEKLQVVGRAGTGVDNVDLEAATRKGILVMNTPNGNSLSAAELTCGMIMCLARQIPQATASMKDGKWERKKFMGTELNGKTLGILGLGRIGREVATRMQSFGMKTIGYDPIISPEVSASFGVQQLPLEEIWPLCDFITVHTPLLPSTTGLLNDNTFAQCKKGVRVVNCARGGIVDEGALLRALQSGQCAGAALDVFTEEPPRDRALVDHENVISCPHLGASTKEAQSRCGEEIAVQFVDMVKGKSLTGVVNAQALTSAFSPHTKPWIGLAEALGTLMRAWAGSPKGTIQVITQGTSLKNAGNCLSPAVIVGLLKEASKQADVNLVNAKLLVKEAGLNVTTSHSPAAPGEQGFGECLLAVALAGAPYQAVGLVQGTTPVLQGLNGAVFRPEVPLRRDLPLLLFRTQTSDPAMLPTMIGLLAEAGVRLLSYQTSLVSDGETWHVMGISSLLPSLEAWKQHVTEAFQFHF
notes: D-3-phosphoglycerate dehydrogenase, human, 533 amino acids; synthetic gene back-translated from GenBank CAG33076.1, codon-optimised for E. coli, cloned in pETM11 (NcoI/XhoI); The N-terminal 6xHis tag of pETM11 can be cut by TEV protease, but no cleavage is reported; the tagged monomer has a theoretical mass of 59.776 kDa and was detected with an anti-His antibody in the SEC peaks; Tetramer in …
With B1 the “stoichiometry N” value [7] was 4, the “stoichiometry N” value [8] was 8 and the Km ([9]; other: 3PG varied, 120 µM NAD+, PSAT-coupled assay, Figure S3A, 37.0 °C) was 252 µM. It also gave a Km ([9]; other: 3PG varied, 120 µM NAD+, hydrazine assay, Figure S3A, 37.0 °C) of 317 µM, a Km [9, 19] of 255 ± 59 µM and a kcat [9, 19] of 1.48 s⁻¹. The kcat/Km [9, 19] was 5800 M⁻¹ s⁻¹, the Km [9, 20] was 360 ± 61 µM and the kcat [9, 20] was 2.97 s⁻¹. The kcat/Km [9, 20] was 8250 M⁻¹ s⁻¹, the Km ([9]; other: substrate varied, 1.5 mM NAD+, hydrazine assay, Figure S3B,D-F, 37.0 °C) was 359 µM and the Km [10] was 559 ± 75 µM. For the same molecule, the kcat [10] was 3.37 s⁻¹, the kcat/Km [10] was 6000 M⁻¹ s⁻¹ and the Km [11, 21] was 41000 ± 19000 µM. It also gave a kcat [11, 21] of 2.53 s⁻¹, a kcat/Km [11, 21] of 61 M⁻¹ s⁻¹ and a Km ([11]; other: substrate varied, 1.5 mM NAD+, Figure S3B,D-F, 37.0 °C) of 41800 µM. The Km [12, 22] was 10 µM, the kcat [12, 22] was 2.28 ± 0.14 s⁻¹ and the kcat/Km [12, 22] was 228000 M⁻¹ s⁻¹. For the same molecule, the Km ([12]; other: reverse reaction, 150 µM NADH, Figure S4A) was 14.1 µM, the Km ([12]; other: reverse reaction, 5 mM NADH, Figure S4A,C,D) was 10.2 µM and the Km [12, 23] was 0.014 ± 0.003 [Ki = 2.23 ± 0.37] mM. The kcat [12, 23] was 1.29 ± 0.09 s⁻¹, the kcat/Km [12, 23] was 91100 M⁻¹ s⁻¹ and the Km [12, 24] was 0.010 ± 0.003 [Ki = 1.26 ± 0.25] mM. It also gave a kcat [12, 24] of 2.28 ± 0.14 s⁻¹, a kcat/Km [12, 24] of 228000 M⁻¹ s⁻¹ and a kcat [13] of 5.41 s⁻¹. The kcat/Km [13] was 36 M⁻¹ s⁻¹, the Km [14] was 0.90 ± 0.42 [Ki = 152 ± 56] mM and the kcat [14] was 1.76 ± 0.20 s⁻¹. The kcat/Km [14] was 1960 M⁻¹ s⁻¹, the Km [15] was 5550 ± 2730 µM and the kcat [15] was 0.41 s⁻¹. The kcat/Km [15] was 74 M⁻¹ s⁻¹, the Km ([16]; PSAT-coupled assay) was 133 µM and the Km ([16]; hydrazine assay) was 162 µM. The kcat/Km ([16]; other: forward reaction, NAD^+ varied, assays 1,2, 37 °C) was 15100 M⁻¹ s⁻¹, the Km [17, 25] was 4480 ± 870 µM and the kcat [17, 25] was 0.44 ± 0.01 s⁻¹. The kcat/Km [17, 25] was 98 M⁻¹ s⁻¹ and the Km ([17]; other: substrate varied, […] NAD+, Figure S3B,D-F) was 4480 µM.
